Test results published in patent publication US20140308239A1 (ELEVEN BIOTHERAPEUTICS, published 2014).
Where a chain is given by its changes, count along the chain named.

T1: IL-1RI on HEK-Blue IL-1β responsive cells (UniProt P14778 18-569)
T1 sequence (looked up): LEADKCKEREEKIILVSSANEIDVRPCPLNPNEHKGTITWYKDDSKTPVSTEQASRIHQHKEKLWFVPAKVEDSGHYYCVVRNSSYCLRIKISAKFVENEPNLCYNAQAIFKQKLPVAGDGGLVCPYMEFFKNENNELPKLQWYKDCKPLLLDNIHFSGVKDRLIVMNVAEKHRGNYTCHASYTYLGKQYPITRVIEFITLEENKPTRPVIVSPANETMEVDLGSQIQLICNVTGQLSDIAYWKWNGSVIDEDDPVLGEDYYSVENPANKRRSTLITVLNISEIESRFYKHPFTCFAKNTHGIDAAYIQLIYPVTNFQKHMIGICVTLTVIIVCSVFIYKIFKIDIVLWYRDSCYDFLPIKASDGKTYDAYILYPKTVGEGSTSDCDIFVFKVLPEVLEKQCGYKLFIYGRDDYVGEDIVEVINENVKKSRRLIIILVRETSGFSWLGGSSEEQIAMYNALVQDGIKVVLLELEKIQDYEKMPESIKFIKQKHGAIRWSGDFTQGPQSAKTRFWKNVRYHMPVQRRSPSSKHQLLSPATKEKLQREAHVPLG

T2: soluble recombinant human IL-1RI (corresponding to the extracellular domain of IL-1RI) (human, UniProt P14778 18-336)
T2 construct: extracellular domain
T2 sequence (looked up): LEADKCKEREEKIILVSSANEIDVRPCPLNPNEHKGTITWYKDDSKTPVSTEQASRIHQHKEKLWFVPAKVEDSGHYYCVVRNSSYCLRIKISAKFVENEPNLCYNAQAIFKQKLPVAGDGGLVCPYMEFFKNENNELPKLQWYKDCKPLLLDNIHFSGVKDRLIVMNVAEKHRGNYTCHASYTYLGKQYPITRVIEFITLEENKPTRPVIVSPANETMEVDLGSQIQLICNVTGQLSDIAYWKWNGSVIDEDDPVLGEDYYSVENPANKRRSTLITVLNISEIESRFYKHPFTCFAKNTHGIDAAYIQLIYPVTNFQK

B1: P04 (designed binder)
chain: APVRSLAFRIWDVNQKTFYLRNNQLVAGYLQGPNVNLEEKFSMSFVQGEESNDKIPVALGLKEKNLYLSCVLKDDKPTLQLESVDPKNYPKKKMEKRFVFNKIEINNKLEFESAACPGWFLCTAMEADQPVSLTNMPDEGVMVTKFTMQFVSS
notes: Expressed in E. coli; also called chimeric cytokine domain P04
B2: P03 (designed binder)
chain: B1 chain with N101I, K102R, I103S, E104D, I105S, N106G, N107P, K108T, L109T, E110S
notes: Expressed in E. coli; also called chimeric cytokine domain P03
B3: P07 (designed binder)
chain: B1 chain with A7N, F8C, A115Q, C116F, G118N, V141Q, M142D, V143I, K145D
notes: Expressed in E. coli
B4: P05 (designed binder)
chain: B1 chain with A7N, F8C, A115Q, C116F, G118N, T147Y
notes: Expressed in E. coli; also called EBI-005; chimeric cytokine domain P05
B5: P01 (designed binder)
chain: APVRSLAFRIWDVNQKTFYLRNNQLVAGYLQGPNVNLEEKIDVSFVQGEESNDKIPVALGIHGGKMCLSCVKSGDETRLQLEAVDPKNYPKKKMDKRFAFIRSDSGPTTSFESAACPGWFLCTAMEADQPVSLTNMPDEGVMVTKFYMQFVSS
notes: Expressed in E. coli; In the cell assay, supernatants or lysates containing P01 were used; also called chimeric cytokine domain P01
B6: P02 (designed binder)
chain: APVRSLAFRIWDVNQKTFYLRNNQLVAGYLQGPNVNLEEKIDVSFVQGEESNDKIPVALGIHGGKMCLSCVKSGDETRLQLEAVDPKNYPKKKMEKRFVFNKIEINNKLSFESAACPGWFLCTAMEADQPVSLTNMPDEGVMVTKFYMQFVSS
notes: Expressed in E. coli; also called chimeric cytokine domain P02
B7: P06 (designed binder)
chain: APVRSLNCTLWDVNQKTFYLRNNQLVAGYLQGPNVEQQVVFSMSFVQGEESNDKIPVALGLKEKNLYLSCVLKDDKPTLQLESVDPKNYPKKKMEKRFVFNKIEINNKLEFESAQFPNWYISTSMEADQPVFLGGTKGGQDITDFTMQFVSS
notes: Expressed in E. coli

Tests used:
[1] = molecular target: IL-1RI on HEK-Blue IL-1β responsive cells (UniProt P14778)
[2] = molecular target: T1, IL-1RI on HEK-Blue IL-1β responsive …; test: cell-based or functional assay
[3] = molecular target: T2, soluble recombinant human IL-1RI …; test: SPR (Reichert SR7000DC), soluble recombinant human IL-1RI, PBS with 0.005% Tween 20
Procedure: The binding properties of proteins for soluble recombinant human IL-1RI (corresponding to the extracellular domain of IL-1RI) were evaluated using surface plasmon resonance with a Reichert SR7000DC Dual Channel SPR system. Binding was evaluated in phosphate buffered saline with 0.005% Tween 20. […] Thus, the P01 protein bound to IL-1RI with a greater affinity than did IL-1β under similar conditions.

[4] = molecular target: T1, IL-1RI on HEK-Blue IL-1β responsive …; test: cell-based or functional assay; remark: listed apart in the source
[5] = molecular target: T1, IL-1RI on HEK-Blue IL-1β responsive …; test: cell-based or functional assay; remark: listed apart in the source

Molecule | OD650 (SEAP reporter of HEK-Blue IL-1β cells, agonism test, negative control; amount of protein not given) [1] [OD650] | IC50 (read off the curve); HEK-Blue IL-1β SEAP reporter, IL-1β 0.1 ng/ml, lysate with untagged P04, concentration estimated [2] [ng/mL] | Kd [3] [nM] | IC50 (read off the curve); HEK-Blue IL-1β SEAP reporter, IL-1β 0.1 ng/ml, lysate with untagged P03, concentration estimated [2] [ng/mL] | koff [3] [s⁻¹] | kon [3] [M⁻¹ s⁻¹] | OD650 (SEAP reporter of HEK-Blue IL-1β cells, agonism test, protein alone; amount of protein not given) [4] [OD650] | IC50, antagonism of IL-1β activity in the HEK-Blue IL-1β SEAP reporter assay [5] [ng/mL] | IC50 (read off the curve); HEK-Blue IL-1β SEAP reporter, IL-1β 0.1 ng/ml, lysate with untagged P01, concentration estimated [2] [ng/mL] | IC50 (read off the curve); HEK-Blue IL-1β SEAP reporter, IL-1β 0.1 ng/ml, lysate with untagged P02, concentration estimated [2] [ng/mL]
GUS (enzyme) | 0.06 |  |  |  |  |  |  |  |  | 
B1 |  | ~6 | 1.71 |  |  |  |  |  |  | 
B2 |  |  | 0.29 | ~2 | 0.0012 | 4.1e+06 |  |  |  | 
B3 |  |  | 92.6 |  | 0.00146 | 15800 | 0.222 |  |  | 
B4 |  |  | 0.012 |  | 4.15e-05 | 3.47e+06 |  | < 5 |  | 
B5 |  |  | 0.47 |  | 2.32e-05 | 49300 | 0.061 |  | ~1 | 
B6 |  |  | 0.636 |  | 2.16e-05 | 33900 |  |  |  | ~1
B7 |  |  | 0.41 |  | 0.0017 | 4.8e+06 | 1.78 |  |  | 
